Changes are numbered by the printed parent chain.
Key:
Assay in all cases: EMSA
Conditions in all cases: tags: MBP fusion
[1] = target: T1, ZFP SBS#1201 (synthetic)
T1 chain: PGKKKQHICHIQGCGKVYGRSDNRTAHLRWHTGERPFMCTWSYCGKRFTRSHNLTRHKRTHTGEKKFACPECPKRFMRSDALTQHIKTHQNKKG
How it was run: (§1)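 Purified ZFP was titrated against labeled double-stranded target (1 nM or lower, at least 10-fold below expected Kd) carrying the natural binding site with flanks. Binding buffer was 10 mM Tris pH 7.5, 100 mM KCl, 1 mM MgCl2, 0.1 mM ZnCl2, 5 mM DTT, 10% glycerol, 0.02% BSA, with equilibration for at least 45 min. Bound and free target were separated on a 10% polyacrylamide gel.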

[2] = target: T2, ZFP SBS#1199 (synthetic)
T2 chain: T1 chain with H52D
How it was run: as §1

[3] = target: T3, ZFP SBS#1200 (synthetic)
T3 chain: T1 chain with H52S
How it was run: as §1

[4] = target: ZFP SBS#1203 (synthetic)
How it was run: as §1

[5] = target: ZFP SBS#1204 (synthetic)
Chain of ZFP SBS#1204 (synthetic) (chain, as listed by the source): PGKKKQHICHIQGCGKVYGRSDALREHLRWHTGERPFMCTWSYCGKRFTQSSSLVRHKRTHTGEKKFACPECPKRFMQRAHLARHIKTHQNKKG
How it was run: as §1

[6] = target: T4, ZFP SBS#1209 (synthetic)
T4 chain: T1 chain with N23E, R24L, A26R, R50Q, H52S, T55V, A81T, T83R, Q84E
How it was run: as §1

[7] = target: T5, ZFP SBS#1116 (synthetic)
T5 chain: T1 chain with N23E, R24L, A26R, R50Q, H52S, T55V, A81E, T83R, Q84E
How it was run: as §1

[8] = target: T6, ZFP SBS#1156 (synthetic)
T6 chain: T1 chain with R20Q, D22A, R24L, T25A, A26R, R50Q, H52S, N53A, T83R
How it was run: as §1

[9] = target: T7, ZFP SBS#1189 (synthetic)
T7 chain: T1 chain with R20Q, D22A, R24L, T25A, A26R, R50T, H52G, N53A, T83R
How it was run: as §1

[10] = target: T8, ZFP SBS#1157 (synthetic)
T8 chain: T1 chain with R20Q, D22A, R24L, T25A, A26R, R50T, H52G, N53S, T83R
How it was run: as §1

[11] = target: ZFP SBS#1192 (synthetic)
Chain of ZFP SBS#1192 (synthetic) (chain, as listed by the source): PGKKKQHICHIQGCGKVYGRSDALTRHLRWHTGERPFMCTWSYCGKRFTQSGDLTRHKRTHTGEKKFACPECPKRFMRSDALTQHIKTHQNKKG
How it was run: as §1

[12] = target: T9, ZFP SBS#1193 (synthetic)
T9 chain: T1 chain with N23A, R24L, A26R, R50Q, H52G, N53S
How it was run: as §1

[13] = target: T10, ZFP SBS#1191 (synthetic)
T10 chain: T1 chain with N23A, R24L, A26R, R50Q, H52G, N53S, A81S, T83N
How it was run: as §1

[14] = target: ZFP SBS#1190 (synthetic)
Chain of ZFP SBS#1190 (synthetic) (chain, as listed by the source): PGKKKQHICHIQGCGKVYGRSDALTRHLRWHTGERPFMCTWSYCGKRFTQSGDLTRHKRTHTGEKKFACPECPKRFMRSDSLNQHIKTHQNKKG
How it was run: as §1

[15] = target: T11, ZFP SBS#1195 (synthetic)
T11 chain: T1 chain with N23A, R24L, A26R, H52D, L54R, R56A, D80S, A81N, Q84R
How it was run: as §1

[16] = target: T12, ZFP SBS#1194 (synthetic)
T12 chain: T1 chain with N23A, R24L, A26R, H52D, L54R, R56A, A81N, Q84R
How it was run: as §1

[17] = target: T13, ZFP SBS#1197 (synthetic)
T13 chain: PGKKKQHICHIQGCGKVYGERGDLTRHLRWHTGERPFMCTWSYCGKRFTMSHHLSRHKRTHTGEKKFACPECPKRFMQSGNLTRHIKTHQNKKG
How it was run: as §1

[18] = target: T14, ZFP SBS#1186 (synthetic)
T14 chain: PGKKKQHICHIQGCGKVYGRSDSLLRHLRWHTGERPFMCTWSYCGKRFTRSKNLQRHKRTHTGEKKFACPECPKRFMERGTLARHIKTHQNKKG
How it was run: as §1

[19] = target: T15, ZFP SBS#1187 (synthetic, UniProt P08047)
T15 chain: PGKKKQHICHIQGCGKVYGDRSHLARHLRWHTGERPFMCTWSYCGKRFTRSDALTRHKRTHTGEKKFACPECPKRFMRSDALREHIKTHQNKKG
How it was run: as §1

[20] = target: T16, ZFP SBS#1185 (synthetic)
T16 chain: T1 chain with R20K, S21N, D22W, N23K, R24L, T25Q, R50Q, T55A, A81N
How it was run: as §1

[21] = target: ZFP SBS#1180 (synthetic)
Chain of ZFP SBS#1180 (synthetic) (chain, as listed by the source): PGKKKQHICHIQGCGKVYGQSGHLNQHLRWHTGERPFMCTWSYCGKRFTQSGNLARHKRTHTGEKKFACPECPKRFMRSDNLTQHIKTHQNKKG
How it was run: as §1

[22] = target: T17, ZFP SBS#1184 (synthetic)
T17 chain: T1 chain with R20K, S21N, D22W, N23K, R24L, T25Q, R50Q, H52G, T55A, A81N
How it was run: as §1

[23] = target: T18, ZFP SBS#479 (synthetic, UniProt P08047)
T18 chain: T15 chain with R21S, H23N, A25T, A53E, T55Q, R83A, E84R
How it was run: as §1

[24] = target: T19, ZFP SBS#480 (synthetic)
T19 chain: T15 chain with R21S, H23N, A25T, S51A, A53T, T55R, R83A, E84R
How it was run: as §1

[25] = target: ZFP SBS#483 (synthetic)
Chain of ZFP SBS#483 (synthetic) (chain, as listed by the source): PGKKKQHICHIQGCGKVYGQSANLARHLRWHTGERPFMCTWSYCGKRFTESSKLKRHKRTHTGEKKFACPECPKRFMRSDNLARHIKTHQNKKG
How it was run: as §1

[26] = target: ZFP SBS#1107 (synthetic)
How it was run: as §1

[27] = target: ZFP SBS#1206 (synthetic)
Chain of ZFP SBS#1206 (synthetic) (chain, as listed by the source): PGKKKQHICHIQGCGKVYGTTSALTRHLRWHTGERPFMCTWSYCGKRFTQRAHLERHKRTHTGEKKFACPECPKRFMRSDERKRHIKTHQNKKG
How it was run: as §1

[28] = target: ZFP SBS#1188 (synthetic)
Chain of ZFP SBS#1188 (synthetic) (chain, as listed by the source): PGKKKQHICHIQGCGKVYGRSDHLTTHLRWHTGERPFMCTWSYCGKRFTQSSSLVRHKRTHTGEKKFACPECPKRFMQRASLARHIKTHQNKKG
How it was run: as §1

[29] = target: ZFP SBS#1151 (synthetic)
Chain of ZFP SBS#1151 (synthetic) (chain, as listed by the source): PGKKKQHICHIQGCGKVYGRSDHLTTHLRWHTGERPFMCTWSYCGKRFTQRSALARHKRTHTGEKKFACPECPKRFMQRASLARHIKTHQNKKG
How it was run: as §1

[30] = target: T20, ZFP SBS#1202 (synthetic, UniProt P08047)
T20 chain: T15 chain with H23N, A25R, R26T, A53N
How it was run: as §1

[31] = target: ZFP SBS#1179 (synthetic)
Chain of ZFP SBS#1179 (synthetic) (chain, as listed by the source): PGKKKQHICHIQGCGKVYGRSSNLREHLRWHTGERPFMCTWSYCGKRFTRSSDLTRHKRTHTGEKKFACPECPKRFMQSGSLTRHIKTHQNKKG
How it was run: as §1

[32] = target: ZFP SBS#1117 (synthetic)
Chain of ZFP SBS#1117 (synthetic) (chain, as listed by the source): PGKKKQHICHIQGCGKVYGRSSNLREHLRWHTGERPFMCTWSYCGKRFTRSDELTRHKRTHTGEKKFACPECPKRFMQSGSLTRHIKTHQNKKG
How it was run: as §1

[33] = target: ZFP SBS#1211 (synthetic)
Chain of ZFP SBS#1211 (synthetic) (chain, as listed by the source): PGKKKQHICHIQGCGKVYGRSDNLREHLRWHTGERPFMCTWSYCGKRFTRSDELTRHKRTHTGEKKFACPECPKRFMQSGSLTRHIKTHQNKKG
How it was run: as §1

[34] = target: T21, ZFP SBS#1207 (synthetic)
T21 chain: T15 chain with D20Q, S22A, A25E, R50T, D52G, A53E, T55V, A81N
How it was run: as §1

[35] = target: T22, ZFP SBS#1108 (synthetic)
T22 chain: T15 chain with D20Q, R21S, S22G, R50T, D52G, A53E, T55V, A81N
How it was run: as §1

[36] = target: T23, ZFP SBS#1104 (synthetic)
T23 chain: T15 chain with D20Q, R21S, H23D, A25R, R50Q, D52G, A53S, A81H
How it was run: as §1

[37] = target: ZFP SBS#1205 (synthetic)
Chain of ZFP SBS#1205 (synthetic) (chain, as listed by the source): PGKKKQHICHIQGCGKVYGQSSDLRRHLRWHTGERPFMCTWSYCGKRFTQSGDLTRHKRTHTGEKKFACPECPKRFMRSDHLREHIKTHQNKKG
How it was run: as §1

B1: ATGGAGAAG (dsDNA)
DNA 1: ATGGAGAAG
DNA 2: CTTCTCCAT
In the case of B1, the Kd [1] is reported as 14.8 nM, the Kd [2] is reported as 3.43 nM and the Kd [3] is reported as 16.9 nM.

B2: GGAGTACTG (dsDNA)
DNA 1: GGAGTACTG
DNA 2: CAGTACTCC
Binder B2 has a Kd [4] of 2.94 nM and a Kd [5] of 4.38 nM.

B3: CCGGAAGCG (dsDNA)
DNA 1: CCGGAAGCG
DNA 2: CGCTTCCGG
Work on B3 yielded a Kd [6] of 19.3 nM and a Kd [7] of 12.3 nM.

B4: ATGGTTGAA (dsDNA)
DNA 1: ATGGTTGAA
DNA 2: TTCAACCAT
Binder B4 has a Kd [8] of 7.2 nM, a Kd [9] of 1.51 nM and a Kd [10] of 0.885 nM.

B5: ATGGCAGTG (dsDNA)
DNA 1: ATGGCAGTG
DNA 2: CACTGCCAT
Work on B5 yielded a Kd [11] of 2.36 nM, a Kd [12] of 3.12 nM and a Kd [13] of 5.33 nM. For the same binder, the Kd [14] was 1.48 nM.

B6: GAGAAGGTG (dsDNA)
DNA 1: GAGAAGGTG
DNA 2: CACCTTCTC
B6 gave a Kd [15] of 2.8 nM and a Kd [16] of 2.19 nM.

B7: GAAGGTGCC (dsDNA)
DNA 1: GAAGGTGCC
DNA 2: GGCACCTTC
With B7 the Kd [17] was 14.8 nM.

B8: GCCGAGGTG (dsDNA)
DNA 1: GCCGAGGTG
DNA 2: CACCTCGGC
Work on B8 yielded a Kd [18] of 27.5 nM.

B9: CTGGTGGGC (dsDNA)
DNA 1: CTGGTGGGC
DNA 2: GCCCACCAG
In the case of B9, the Kd [19] is reported as 6 pM.

B10: AAGGAAAGA (dsDNA)
DNA 1: AAGGAAAGA
DNA 2: TCTTTCCTT
Work on B10 yielded a Kd [20] of 5.25 nM, a Kd [21] of 4.83 nM and a Kd [22] of 2.79 nM.

B11: GTGGCGGACC (dsDNA)
DNA 1: GTGGCGGACC
DNA 2: GGTCCGCCAC
For B11, the Kd [23] was 8.5 nM and the Kd [24] was 5 nM.

B12: GAGGGCGAAG (dsDNA)
DNA 1: GAGGGCGAAG
DNA 2: CTTCGCCCTC
In the case of B12, the Kd [25] is reported as 130 nM.

B13: GCGGGAGTT (dsDNA)
DNA 1: GCGGGAGTT
DNA 2: AACTCCCGC
With B13 the Kd [26] was 0.06 nM and the Kd [27] was 0.034 nM.

B14: GTAGTATGG (dsDNA)
DNA 1: GTAGTATGG
DNA 2: CCATACTAC
With B14 the Kd [28] was 2.74 nM and the Kd [29] was 1.63 nM.

B15: CTGGAGTAC (dsDNA)
DNA 1: CTGGAGTAC
DNA 2: GTACTCCAG
With B15 the Kd [30] was 2.83 nM.

B16: GCAGCGCAG (dsDNA)
DNA 1: GCAGCGCAG
DNA 2: CTGCGCTGC
B16 was tested, and the Kd [31] was 2.73 nM, the Kd [32] was 2.85 nM and the Kd [33] was 6.5 nM.

B17: CAGGCTGGA (dsDNA)
DNA 1: CAGGCTGGA
DNA 2: TCCAGCCTG
B17 showed a Kd [34] of 0.45 nM and a Kd [35] of 7 pM.

B18: CGGGCAGCT (dsDNA)
DNA 1: CGGGCAGCT
DNA 2: AGCTGCCCG
B18 gave a Kd [36] of 0.08 nM and a Kd [37] of 0.9 nM.

From US20030068675, “Position dependent recognition of GNN nucleotide triplets by zinc fingers” (published 2003)
